Consider 27 sequences from the domain aggregation screens of Martell et al. (2025).

This data set can be described thus: soluble fraction after stress (log2 fold change); higher = more stays soluble; pooled small domains, quantitative proteomics. As to conditions: stress: pH 4. The procedure, abridged: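 How much of each domain stays soluble after acid stress, expressed as a fold change, is used to gauge aggregation propensity. Pooled custom libraries of small domains underwent pH 4 stress before high-throughput quantitative proteomics. A higher log2 value means more of the domain stayed soluble.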

Turning to “HMLTRSASREELDQLLKRLRQNLKQKNFFWPPDKEKSLVLYLENLFSKFPLNSSDIRFLHGIIRTLSEK”, the “soluble fraction (log2)” value is -0.114. The same measure for “HMLVGKSVIMKTNESSSGMIAGKVNYWENIDGKIYLGINGKLYDIADVDTVLDNDYYDKLVN”: -1.14; for “HMLVKKYTEEETGRQAELSKQLAELSKAYYNTGNSMVDDAVFDKLRDELSSLEKESGFAYDISPNVS”: -0.276; for “HMLVNNSTIETVIDFANVKFGMELTKDQVSEQLRNLSFSQTLKLINSMKADDNDAFSEIIDL”: -1.89.

With “HMLVSFGDHLKRYIYERAGIEEPFGEVPQEIYRDIAVDSFRETYTPKSMNPTSTKLPALVNNWLIQ”, the “soluble fraction (log2)” value was -0.388. On to “HMLVSVSNYLGQNVDTVKSDLEALGLVVKLKEQQTDRESENGAVLEQSIEGGSKVSAGTPITLTYGK”, for which the “soluble fraction (log2)” value is -0.00697.

As to “HMLWTHIALPVRSLDDTMAFYDKYTTLENIHERQDPETNMRSVWLANPGDKTEQAARFVLVLI”, the “soluble fraction (log2)” value is -0.126. The same measure for “HMMTDAEKTFIFFSHLSSVEDHIAYGDKQFYMSLFWQHENKRELSSSQLYHLERLYNKYSMEEIEKKEEFS”: -1.07; for “HMMTDEEFLRIAGYMKQRYGIDLGQKKVIMNGRLENHIKSGGWSSFHAFMNDLEKDSSGKLEKELVNLLTT”: -0.367; for “HMMTLEESYKLLQVSHNASDIEITKAFKKLALLYHPDKNPSNIDWANKAMASINVAYNTIITHRFKEK”: -0.2. Take “HMNAAYDEELDFIFSLSEKGKWEEAEAEIGLLLQKHPEDATLQRIGEWVTTQKILLRQQAVEDRIRS”: the “soluble fraction (log2)” value is -0.679.

In the case of “HMNAEWMFDARKIPGLVMNYLRRIAVRAIEEKHYSPELVADLFGIDRTSIYDWLRKYRQQGEEALDTRKA”, the “soluble fraction (log2)” value is 0.0142. Then “HMNAFEIYPNPASNLIRIDAEFTVAKIFSQTGNLIQTSTTKEIDVYNLANGIYFVKLDDSPSMVKFVIN”, with -1.09. Then “HMNALTEAESKLLERMNKAGIHAEITTKKAAGILQRSENGARTVLNSLVKKGYLTVETNKAPYIYHLH”, with 0.301; and “HMNAMFEKVLAAVMGFIGVSAFAKNADGKSEMTSDQEKRLTDKWGSKFVEEFKNDLLEYEKNGNAAEDAV”, with -0.332; and “HMNAPKKPLSAYFLFSQEERLKVKAENPDYSITEVAKELGKRWATLNPDIKTVYEQRYQDARRIYETEMNT”, with -0.102. The same measure for “HMNAQLTTIPDLDGMNMRAATAMLSSLGLEVKRIGSGTVFAQFPKAGAAMRPGSMVTIRGKAKSL”: 0.22; for “HMNATLSSSYPTSVVTDGEIYKLTFGLNGKYNGQEQITVKPHGDSNIYDSGGLRAYQNTQSNNVVTLN”: -0.254. As to “HMNATQLSNTQKQIRTQLLERLSNNPLTVKQLADRMFVPIDTILKEITALIQEQKIIEDKGGKLQIN”, the “soluble fraction (log2)” value turned out to be 0.168.

Turning to “HMNAVDLLSPQEQRIFELIGEGMSNRQIADVMYLAEKTVKNYVSNVLMKLGMERRTEAAALAARLDERQK”, the “soluble fraction (log2)” value was -0.468. Then “HMNAVITTQKAKQIALAHAGLSEADVNYVKAELENDDGVQVYDIEFYSKNIEYDYDINAVTGEIMSFDHDI”, with -0.623. For the sequence “HMNAVYPNPFVSEIYIGENNRSVEIYNLNGGLVYGMSQPSSRIDVSGLAAGSYILIKKDSSGHISSHKIMK”, the “soluble fraction (log2)” value was -0.261. The same measure for “HMNDAARQTTDILQHVRSSGSISFRDLWRLFMPFMAYRDFDAAVKSLVAAGHIATTENERKELHLIAF”: -1.42.

Take “HMNDEFYAVVRESYAGYALVKPLDEDVGYDILSVSVKNLKVGDIIRLKVKNIKEIYPPEAEVLEVEVLQ”: the “soluble fraction (log2)” value was -1.59. Then “HMNDEQFAIAKNDLLLSLYDGKEVNNSAAEYIIAWESLEKSPSDYISSQLKNTAESIIKISFD”, with 0.0518; and “HMNDFVTVPDLQGIFYSEAIKKIDKMGLKEGSIQFVNQDKFLPNTVLNQNPKEGTKVSQDSPINLIIS”, with -0.594; and “HMNDILETISNQIRDLRVSKKITQQELAERTNLSVPYISQIENGHRNISLETFIKIVDALDIPLSDFFLP”, with -1.11.
